Test results published in article PMC11959585.

Tests used:
[1] = molecular target: His-tagged transcriptional activation domain of the tumor suppressor protein p53 (UniProt P04637); assay: solution-phase LSPR peak shift of nanoparticles (UV–vis); hTAD ([…]) immobilised by its His-tag on NTA-Ni AgDNP@Au nanobiosensors (~0.025 nM), NCBD (0.27 μM) added; 10 mM Tris, 30 mM NaCl, 0.025 wt % Tween 20, pH 7.5; near equilibrium (25 min)
[2] = molecular target: His-tagged transcriptional activation domain of the tumor suppressor protein p53 (UniProt P04637); assay: solution-phase LSPR peak shift of nanoparticles (UV–vis); hTAD ([…]) immobilised by its His-tag on NTA-Ni AgDNP@Au nanobiosensors (~0.025 nM), NCBD (0.27 μM) added; 10 mM Tris, 10 mM NaCl, 0.025 wt % Tween 20, pH 7.5; nanoparticles aggregated after several minutes
[3] = molecular target: His-tagged transcriptional activation domain of the tumor suppressor protein p53 (UniProt P04637); assay: solution-phase LSPR peak shift of nanoparticles (UV–vis); hTAD ([…]) immobilised by its His-tag on NTA-Ni AgDNP@Au nanobiosensors (~0.025 nM), NCBD (0.27 μM) or BSA ([…]) added; 10 mM Tris, 150 mM NaCl, 0.025 wt % Tween 20, pH 7.5; near equilibrium (25 min)
[4] = molecular target: PEX14 16-80 (Homo sapiens) (UniProt O75381); assay: ITC; details: cited from earlier work
[5] = molecular target: PEX14 16-80 (Homo sapiens) (UniProt O75381); assay: SPR; details: cited from earlier work

His-tagged transcriptional activation domain of the tumor suppressor protein p53, sequence (P04637 whole entry, the tested form may be a part): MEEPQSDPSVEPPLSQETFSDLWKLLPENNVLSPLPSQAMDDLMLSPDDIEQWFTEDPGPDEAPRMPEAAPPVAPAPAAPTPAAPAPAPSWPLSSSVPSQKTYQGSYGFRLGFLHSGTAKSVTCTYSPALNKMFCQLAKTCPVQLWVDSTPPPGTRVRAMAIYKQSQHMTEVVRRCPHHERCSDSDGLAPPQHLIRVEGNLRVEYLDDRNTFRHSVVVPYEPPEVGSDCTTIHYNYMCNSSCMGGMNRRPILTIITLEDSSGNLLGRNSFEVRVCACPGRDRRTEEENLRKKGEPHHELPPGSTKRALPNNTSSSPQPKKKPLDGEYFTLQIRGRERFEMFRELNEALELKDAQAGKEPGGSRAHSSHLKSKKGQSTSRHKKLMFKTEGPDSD
PEX14 16-80 (Homo sapiens), sequence (O75381 16-80): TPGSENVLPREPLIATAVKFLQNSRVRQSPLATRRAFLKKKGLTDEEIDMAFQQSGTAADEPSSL

Row | second LSPR peak redshift (30 mM NaCl) [1] [nm] | LSPR peak redshift after addition of NCBD (10 mM NaCl) [2] [nm] | second LSPR peak redshift (150 mM NaCl) [3] [nm] | Substance | Kd [4] [nM] | Kd [5] [nM]
1 | 3.2 | 6.2 | 1 | nuclear receptor coactivator binding domain of the CREB-binding protein (from UniProt Q92793 1-2442) (domain or fragment) | – | –
2 | – | – | – | PEX5 W4 motif W4 (from UniProt P50542) | 6300 | –
3 | – | – | – | PEX5 1-113 (from UniProt P50542) | 157 | 87
